How the values were obtained:
[1] = molecular target: T1, AMHRII on the COV434 AMHRII transfected cell line (~80,000 receptors) (human, UniProt Q16671 18-573); assay: cell-based or functional assay
T1 sequence: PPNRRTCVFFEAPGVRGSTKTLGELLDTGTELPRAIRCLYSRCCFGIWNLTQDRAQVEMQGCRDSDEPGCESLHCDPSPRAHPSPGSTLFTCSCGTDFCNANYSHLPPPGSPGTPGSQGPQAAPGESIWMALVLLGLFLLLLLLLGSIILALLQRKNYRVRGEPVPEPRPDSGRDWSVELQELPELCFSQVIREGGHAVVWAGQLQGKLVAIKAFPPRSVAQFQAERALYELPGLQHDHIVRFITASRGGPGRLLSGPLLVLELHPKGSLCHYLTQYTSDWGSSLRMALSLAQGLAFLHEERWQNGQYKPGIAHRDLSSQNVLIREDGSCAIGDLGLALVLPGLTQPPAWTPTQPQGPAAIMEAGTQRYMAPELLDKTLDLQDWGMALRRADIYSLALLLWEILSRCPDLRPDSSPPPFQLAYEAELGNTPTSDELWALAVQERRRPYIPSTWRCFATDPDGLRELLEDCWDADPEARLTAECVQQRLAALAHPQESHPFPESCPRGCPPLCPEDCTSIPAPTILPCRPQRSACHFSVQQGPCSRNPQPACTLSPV

[2] = molecular target: T2, FcRn; assay: SPR ('Binding SPR (KD)' row FcRn); set-up not given
T2 construct: also called neonatal Fc receptor

[3] = molecular target: T3, anti-Müllerian hormone type II receptor (AMHRII), immobilised on the SPR chip (human, UniProt Q16671 18-149, limits assumed); assay: SPR (Bia3000, 25°C), AMHRII covalently immobilised on a CM5 chip, ADC injected, Langmuir 1:1 fit (Example 3)
T3 construct: also called AMHR2
Method: All kinetic measurements are performed on a Bia3000 apparatus at 25° C. in PBS pH 7.4 containing 0.005% of P20 surfactant at 50 μl/min on control and AMHRII Flowcells. The antibody is injected during 180 s at concentrations given in the appendix. After a dissociation step of 400 s in running buffer, sensor surfaces are regenerated using one pulse of 15 μl of Gly-HCL pH1.7. All the sensorgrams are corrected by subtracting the low signal from the control reference surface and blank buffer. Kinetic parameters are evaluated from the sensorgrams using a Langmuir 1:1 model on the BiaEvaluation software 4.2.
For kinetic studies all the mAb and ADC are injected at various concentrations (0.7 nM-100 nM). The sensorgrams are evaluated by L1:1 fitting model (BiaEvaluation 4.2 software) starting of minimum 3 (n=3) separated experiments or fits to obtain average values for ka, kd and KD with standard deviation (SD). Several experiments are performed on the same AMHRII-coated surface after verification of the responses stability to 10 nM injection of 3C23K before and after the experiment series with each mAb/ADC. All results are obtained from two AMHRII-coated Flowcells.

- Kd [2]: 22 nM
- Kd [3]: 1.7 nM
B1: GM104 (antibody, human IgG1, kappa)
heavy: QVRLVQSGAEVKKPGASVKVSCKASGYTFTSYHIHWVRQAPGQRLEWMGWIYPGDDSTKYSQKFQGRVTITRDTSASTAYMELSSLRSEDTAVYYCTRGDRFAYWGQGTLVTVSSASTKGPSVFPLAPSSKSTSGGTAALGCLVKDYFPEPVTVSWNSGALTSGVHTFPAVLQSSGLYSLSSVVTVPSSSLGTQTYICNVNHKPSNTKVDKRVEPKSCDKTHTCPPCPAPELLGGPSCVFLFPPKPKDTLMISRTPEVTCVVVDVSHEDPEVKFNWYVDGVEVHNAKTKPREEQYNSTYRVVSVLTVLHQDWLNGKEYKCKVSNKALPAPIEKTISKAKGQPREPQVYTLPPSREEMTKNQVSLTCLVKGFYPSDIAVEWESNGQPENNYKTTPPVLDSDGSFFLYSKLTVDKSRWQQGNVFSCSVMHEALHNHYTQKSLSLSPGK
light: DIQMTQSPSTLSASVGDRVTITCRASSSVRYIAWYQQKPGKAPKLLTYPTSSLESGVPSRFSGSGSGTEFTLTISSLQPDDFATYYCLQWSSYPWTFGGGTKVEIKRTVAAPSVFIFPPSDEQLKSGTASVVCLLNNFYPREAKVQWKVDNALQSGNSQESVTEQDSKDSTYSLSSTLTLSKADYEKHKVYACEVTHQGLSSPVTKSFNRGEC
notes: also called GM104 ADC; ADC according to the invention
- IC50, proliferation/viability of COV434 AMHRII transfected cells after 72 h (CellTiter Blue) [1]: 0.22 nM
